This note sets out measurements from article PMC11969024 (2025).

The labels stand for the following.
B1: peptide HD2 (from tick evasin EVA4) / CXCL11 (biotinylated, synthetic) (parent complex)
chain 1: EEDDYTAYAPLTCYFT
chain 2: FPMFKRGRCLCIGPGVKAVKVADIEKASIMYPSNNCDKIEVIITLKENKGQRCLNPKSKQARLIIKKVERKNF

The variants in the assay derive from B1.
With chain 1 Y14C, the enrichment is -3.13 log2 (difference from the parental peptide).

For the variant chain 1 Y14F, the enrichment is 0.796 log2 (difference from the parental peptide).

Take chain 1 Y14H: the enrichment was -2.54 log2 (difference from the parental peptide).

As for chain 1 Y14T, the enrichment was -5.08 log2 (difference from the parental peptide).

For the variant chain 1 Y14V, the enrichment is -5.26 log2 (difference from the parental peptide).

As for chain 1 Y14G, the enrichment is -6.05 log2 (difference from the parental peptide).

On to chain 1 F15S, for which the enrichment is -1.86 log2 (difference from the parental peptide).

In the case of chain 1 F15Y, the enrichment was 0.592 log2 (difference from the parental peptide).

Take chain 1 F15A: the enrichment is -3.02 log2 (difference from the parental peptide).

On to chain 1 F15R, for which the enrichment was -4.18 log2 (difference from the parental peptide).

As to chain 1 F15G, the enrichment is -4.79 log2 (difference from the parental peptide).

Regarding chain 1 F15L, the enrichment is -2.87 log2 (difference from the parental peptide).

Take chain 1 F15Q: the enrichment was -2.96 log2 (difference from the parental peptide).

As for chain 1 F15E, the enrichment was -6.06 log2 (difference from the parental peptide).

chain 1 F15M: the enrichment was -0.451 log2 (difference from the parental peptide).

For chain 1 F15T, the enrichment is -0.0704 log2 (difference from the parental peptide).

On to chain 1 F15C, for which the enrichment was 0.343 log2 (difference from the parental peptide).

In the case of chain 1 F15V, the enrichment is -0.608 log2 (difference from the parental peptide).

Turning to chain 1 F15H, the enrichment was -2.86 log2 (difference from the parental peptide).

For chain 1 L11A, the enrichment was -1.47 log2 (difference from the parental peptide).

As to chain 1 L11T, the enrichment is -1.48 log2 (difference from the parental peptide).

Consider chain 1 L11S, for which the enrichment is -0.706 log2 (difference from the parental peptide).

Consider chain 1 L11C, for which the enrichment is -2.08 log2 (difference from the parental peptide).

For chain 1 L11P, the enrichment was -5.24 log2 (difference from the parental peptide).

In the case of chain 1 L11H, the enrichment is 0.15 log2 (difference from the parental peptide).

For the variant chain 1 L11M, the enrichment is 2.73 log2 (difference from the parental peptide).

On to chain 1 L11R, for which the enrichment is -3.19 log2 (difference from the parental peptide).

For the variant chain 1 L11D, the enrichment is -5.22 log2 (difference from the parental peptide).

As to chain 1 L11W, the enrichment was 4.79 log2 (difference from the parental peptide).

On to chain 1 E2M, for which the enrichment is 0.915 log2 (difference from the parental peptide).

For the variant chain 1 E2T, the enrichment was -4.37 log2 (difference from the parental peptide).

chain 1 E2H: the enrichment is -4.78 log2 (difference from the parental peptide).

Regarding chain 1 E2K, the enrichment was -2.28 log2 (difference from the parental peptide).

chain 1 E2S: the enrichment is -2.62 log2 (difference from the parental peptide).

In the case of chain 1 P10L, the enrichment is -1.17 log2 (difference from the parental peptide).

For the variant chain 1 P10W, the enrichment was 0.743 log2 (difference from the parental peptide).

On to chain 1 P10S, for which the enrichment is -1.81 log2 (difference from the parental peptide).

In the case of chain 1 P10I, the enrichment was -0.366 log2 (difference from the parental peptide).

With chain 1 P10M, the enrichment was -4.64 log2 (difference from the parental peptide).

As for chain 1 P10E, the enrichment is -3.45 log2 (difference from the parental peptide).

Consider chain 1 P10H, for which the enrichment is -5.09 log2 (difference from the parental peptide).

With chain 1 P10V, the enrichment is -5.93 log2 (difference from the parental peptide).

On to chain 1 P10N, for which the enrichment was 1.47 log2 (difference from the parental peptide).

On to chain 1 P10D, for which the enrichment is 8.22 log2 (difference from the parental peptide).

As to chain 1 T16C, the enrichment was 2.71 log2 (difference from the parental peptide).

Take chain 1 T16P: the enrichment is 0.438 log2 (difference from the parental peptide).

Regarding chain 1 T16L, the enrichment was 0.663 log2 (difference from the parental peptide).

As for chain 1 T16Q, the enrichment is -2.38 log2 (difference from the parental peptide).

On to chain 1 T16F, for which the enrichment was -2.01 log2 (difference from the parental peptide).

Turning to chain 1 T16Y, the enrichment was -3.28 log2 (difference from the parental peptide).

For the variant chain 1 T16M, the enrichment is -0.985 log2 (difference from the parental peptide).

Regarding chain 1 T16E, the enrichment was 1.12 log2 (difference from the parental peptide).

Consider chain 1 T16I, for which the enrichment was 0.577 log2 (difference from the parental peptide).

Regarding chain 1 T16S, the enrichment is 0.254 log2 (difference from the parental peptide).

Consider chain 1 T16V, for which the enrichment is -2.73 log2 (difference from the parental peptide).

Regarding chain 1 E1V, the enrichment is -6.09 log2 (difference from the parental peptide).

As to chain 1 E1I, the enrichment is 0.804 log2 (difference from the parental peptide).

Take chain 1 E1P: the enrichment was -4.68 log2 (difference from the parental peptide).

chain 1 E1L: the enrichment was -0.107 log2 (difference from the parental peptide).

chain 1 E1A: the enrichment was 0.823 log2 (difference from the parental peptide).

For the variant chain 1 E1N, the enrichment is -4.13 log2 (difference from the parental peptide).

Consider chain 1 E1D, for which the enrichment was 1.33 log2 (difference from the parental peptide).

chain 1 E1Y: the enrichment is 1.69 log2 (difference from the parental peptide).

In the case of chain 1 A7L, the enrichment was 0.413 log2 (difference from the parental peptide).

In the case of chain 1 A7F, the enrichment was 1.43 log2 (difference from the parental peptide).

As to chain 1 A7R, the enrichment is -1.89 log2 (difference from the parental peptide).

Turning to chain 1 A7E, the enrichment is -0.399 log2 (difference from the parental peptide).

Regarding chain 1 A7D, the enrichment was 2.88 log2 (difference from the parental peptide).

As to chain 1 A7S, the enrichment was 0.213 log2 (difference from the parental peptide).

Regarding chain 1 A7G, the enrichment is -3.03 log2 (difference from the parental peptide).

As for chain 1 A7Q, the enrichment was 3.76 log2 (difference from the parental peptide).

chain 1 A7H: the enrichment was -1.06 log2 (difference from the parental peptide).

With chain 1 A7P, the enrichment was 0.432 log2 (difference from the parental peptide).

For the variant chain 1 A7V, the enrichment is 0.52 log2 (difference from the parental peptide).

chain 1 A7M: the enrichment is 1.69 log2 (difference from the parental peptide).

Regarding chain 1 A7K, the enrichment is -3.04 log2 (difference from the parental peptide).

As for chain 1 A7N, the enrichment is 1.13 log2 (difference from the parental peptide).

Regarding chain 1 A7T, the enrichment is -0.798 log2 (difference from the parental peptide).

With chain 1 D3Y, the enrichment is -1.43 log2 (difference from the parental peptide).

As to chain 1 D3F, the enrichment was -3.31 log2 (difference from the parental peptide).

As to chain 1 D3S, the enrichment was -4.11 log2 (difference from the parental peptide).

Consider chain 1 D3W, for which the enrichment was 0.263 log2 (difference from the parental peptide).

Regarding chain 1 D3N, the enrichment was -0.358 log2 (difference from the parental peptide).

chain 1 D3T: the enrichment was -3.75 log2 (difference from the parental peptide).

On to chain 1 A9H, for which the enrichment is -5.35 log2 (difference from the parental peptide).

For the variant chain 1 A9N, the enrichment is -2.99 log2 (difference from the parental peptide).

Consider chain 1 A9W, for which the enrichment is 5.42 log2 (difference from the parental peptide).

Consider chain 1 A9I, for which the enrichment is -4.81 log2 (difference from the parental peptide).

On to chain 1 A9T, for which the enrichment is 1.25 log2 (difference from the parental peptide).

As to chain 1 A9Q, the enrichment was 0.165 log2 (difference from the parental peptide).

Consider chain 1 A9R, for which the enrichment was -1.01 log2 (difference from the parental peptide).

On to chain 1 A9E, for which the enrichment is 2.26 log2 (difference from the parental peptide).

As to chain 1 A9M, the enrichment is -0.281 log2 (difference from the parental peptide).

Turning to chain 1 A9V, the enrichment is -2.18 log2 (difference from the parental peptide).

Turning to chain 1 A9L, the enrichment was -2.33 log2 (difference from the parental peptide).

As for chain 1 Y5W, the enrichment is 5.39 log2 (difference from the parental peptide).

On to chain 1 Y5F, for which the enrichment is -0.5 log2 (difference from the parental peptide).

With chain 1 Y5N, the enrichment was -4.84 log2 (difference from the parental peptide).

In the case of chain 1 Y5I, the enrichment was -1.31 log2 (difference from the parental peptide).

For the variant chain 1 D4I, the enrichment was -4.93 log2 (difference from the parental peptide).

Consider chain 1 D4M, for which the enrichment was -5.76 log2 (difference from the parental peptide).

As for chain 1 D4L, the enrichment was -4.01 log2 (difference from the parental peptide).

As for chain 1 D4W, the enrichment is -2.72 log2 (difference from the parental peptide).

Consider chain 1 D4P, for which the enrichment was 0.748 log2 (difference from the parental peptide).

As to chain 1 D4V, the enrichment is -6.99 log2 (difference from the parental peptide).

For the variant chain 1 D4F, the enrichment was -5.51 log2 (difference from the parental peptide).

On to chain 1 D4S, for which the enrichment was -5.73 log2 (difference from the parental peptide).

For chain 1 Y8V, the enrichment is -0.599 log2 (difference from the parental peptide).

On to chain 1 Y8M, for which the enrichment is -5.63 log2 (difference from the parental peptide).

For the variant chain 1 Y8S, the enrichment is -2.63 log2 (difference from the parental peptide).

Take chain 1 Y8D: the enrichment is -3.68 log2 (difference from the parental peptide).

For chain 1 Y8F, the enrichment was 0.146 log2 (difference from the parental peptide).

chain 1 Y8I: the enrichment was -0.997 log2 (difference from the parental peptide).

With chain 1 Y8H, the enrichment is -4.71 log2 (difference from the parental peptide).

As to chain 1 Y8N, the enrichment was 0.757 log2 (difference from the parental peptide).

As to chain 1 T12S, the enrichment is -1.85 log2 (difference from the parental peptide).

chain 1 T12E: the enrichment is -0.922 log2 (difference from the parental peptide).

On to chain 1 T12F, for which the enrichment is -2.38 log2 (difference from the parental peptide).

Turning to chain 1 T12Y, the enrichment was 1.35 log2 (difference from the parental peptide).

As to chain 1 T12R, the enrichment was -6.22 log2 (difference from the parental peptide).

In the case of chain 1 T12H, the enrichment is -2.7 log2 (difference from the parental peptide).

As for chain 1 T12M, the enrichment was 0.317 log2 (difference from the parental peptide).

With chain 1 T12Q, the enrichment was -3.76 log2 (difference from the parental peptide).

On to chain 1 T12V, for which the enrichment was 1.82 log2 (difference from the parental peptide).

chain 1 T12W: the enrichment was 0.223 log2 (difference from the parental peptide).

As for chain 1 T12I, the enrichment was 0.0621 log2 (difference from the parental peptide).

As for chain 1 T12A, the enrichment was -4.34 log2 (difference from the parental peptide).

For the variant chain 1 T12D, the enrichment was -5.79 log2 (difference from the parental peptide).

In the case of chain 1 C13F, the enrichment is -5.76 log2 (difference from the parental peptide).

With chain 1 C13V, the enrichment was -1.39 log2 (difference from the parental peptide).

As for chain 1 C13A, the enrichment was -5.18 log2 (difference from the parental peptide).

chain 1 C13M: the enrichment was -6.65 log2 (difference from the parental peptide).

Regarding chain 1 C13Q, the enrichment is -4.93 log2 (difference from the parental peptide).

On to chain 1 C13E, for which the enrichment was -5.07 log2 (difference from the parental peptide).

Turning to chain 1 T6C, the enrichment was -5.45 log2 (difference from the parental peptide).

chain 1 T6R: the enrichment was 0.535 log2 (difference from the parental peptide).

On to chain 1 T6S, for which the enrichment was 1.57 log2 (difference from the parental peptide).

For chain 1 T6N, the enrichment was 1.03 log2 (difference from the parental peptide).

As to chain 1 T6M, the enrichment was 1.9 log2 (difference from the parental peptide).

As for chain 1 T6K, the enrichment was 0.156 log2 (difference from the parental peptide).

As to chain 1 T6Y, the enrichment is 3.68 log2 (difference from the parental peptide).

Take chain 1 T6A: the enrichment was 1.82 log2 (difference from the parental peptide).

Consider chain 1 T6H, for which the enrichment was -0.342 log2 (difference from the parental peptide).

For the variant chain 1 T6F, the enrichment is 4.5 log2 (difference from the parental peptide).

For chain 1 T6I, the enrichment was -0.429 log2 (difference from the parental peptide).

In the case of chain 1 T6D, the enrichment is 3.67 log2 (difference from the parental peptide).

In the case of chain 1 T6W, the enrichment was 9.7 log2 (difference from the parental peptide).

For the variant chain 1 T6Q, the enrichment was -2.01 log2 (difference from the parental peptide).

Consider chain 1 T6P, for which the enrichment was 1.34 log2 (difference from the parental peptide).

As for chain 1 T6G, the enrichment was 4.62 log2 (difference from the parental peptide).
